Reference: patent US20210054388

Test system: Zif268::FokI zinc finger nuclease (synthetic)
Experiment: cell_activity
Conditions: N. tabacum leaf, pLSLZ.D + p35SREP, 7 dpi; 6 of 8 sequenced resistant clones mutated

Zif268 target site in gus::nptII reporter
activity (% of reporter genes with NHEJ mutations): 10
